Results on 167 variants are retold here after the RNAGym collection of RNA variant scans (doi:10.7554/elife.80360).

B1: HDV Ribozyme (parent)
chain: GGCCGGCAUGGUCCCAGCCUCCUCGCUGGCGCCGGCUGGGCAACAUUCCGAGGGGACCGUCCCCUCGGUAAUGGCGAAUGGGACCCA

The variants in this data set derive from B1. Briefly: self-cleavage, relative activity (ratio to wild type); higher = more cleavage; co-transcriptional.
In the case of G2A U12G, the self-cleavage was determined as 0.0405.

On to C26G G29C, for which the self-cleavage was found to be 0.0504.

Turning to U37C G82U, the self-cleavage turned out to be 0.399.

U37C G82C: the self-cleavage came to 0.268.

As for G2C C49U, the self-cleavage is 0.132.

Regarding G31A G50C, the self-cleavage worked out at 0.521.

For G10C G50C, the self-cleavage worked out at 0.923.

In the case of U9C C22A, the self-cleavage was 0.192.

With G31C U46A, the self-cleavage is 0.256.

Turning to U27A C64G, the self-cleavage amounted to 1.05.

In the case of C48G C49A, the self-cleavage was found to be 0.808.

Regarding G55A A56G, the self-cleavage came to 0.882.

Regarding C30A U79A, the self-cleavage turned out to be 0.386.

Take C4U U60G: the self-cleavage is 0.939.

For G29C A78G, the self-cleavage came to 0.

Consider C14A U65A, for which the self-cleavage was 0.811.

In the case of A77G C86A, the self-cleavage amounted to 1.15.

Regarding G55A C64A, the self-cleavage is 0.95.

For A45G G50U, the self-cleavage came out at 1.16.

As for A8U C61A, the self-cleavage amounted to 0.831.

C61A U65C: the self-cleavage came to 0.909.

C4A A51U: the self-cleavage is 0.145.

C13G C86U: the self-cleavage worked out at 0.151.

Take G28U G34A: the self-cleavage came out at 0.0496.

Regarding G31U C48U, the self-cleavage worked out at 0.619.

With U37G G73U, the self-cleavage was determined as 0.0923.

Consider A42G G67A, for which the self-cleavage stood at 0.435.

As to U65G U69C, the self-cleavage was 0.877.

For G11A C49U, the self-cleavage came to 0.386.

For G1U U27A, the self-cleavage is 0.44.

Take C15A C58A: the self-cleavage is 0.332.

For the variant G25U C48A, the self-cleavage was 0.332.

In the case of U27A G29A, the self-cleavage was 0.135.

Consider C30G U79A, for which the self-cleavage stood at 0.156.

With U60C C63G, the self-cleavage came to 1.09.

As to A71U U72A, the self-cleavage amounted to 0.969.

In the case of G68A U69G, the self-cleavage amounted to 0.917.

As for U46A G81C, the self-cleavage was 0.312.

For the variant A8U C22A, the self-cleavage turned out to be 0.0923.

With C4A A87G, the self-cleavage turned out to be 0.233.

As to U9G A87G, the self-cleavage stood at 1.15.

On to G31C A51C, for which the self-cleavage came to 0.475.

For the variant C7G A45U, the self-cleavage was 0.383.

For the variant C36G G74C, the self-cleavage was determined as 0.0723.

In the case of C7G G40C, the self-cleavage came out at 0.

In the case of C33G A42C, the self-cleavage was determined as 0.142.

For G6C U47A, the self-cleavage amounted to 0.0875.

As to G25C U27G, the self-cleavage came to 0.

For the variant C21G G80A, the self-cleavage turned out to be 0.0196.

On to G6U G40C, for which the self-cleavage worked out at 0.193.

Consider U60A, for which the self-cleavage came out at 1.

C32U G76U: the self-cleavage was determined as 0.751.

For the variant C44U G59U, the self-cleavage came out at 0.854.

U37C U65G: the self-cleavage is 0.906.

For C21G A70U, the self-cleavage stood at 0.111.

In the case of G59C A77U, the self-cleavage came out at 0.534.

For C26A A71C, the self-cleavage came out at 1.07.

As to G53A G73A, the self-cleavage was found to be 0.44.

On to G54C G74A, for which the self-cleavage was found to be 0.314.

Consider G29A C49G, for which the self-cleavage was determined as 0.225.

As to U12A G34A, the self-cleavage was 0.0378.

Consider C44U U47G, for which the self-cleavage is 0.677.

On to G35A G39C, for which the self-cleavage stood at 0.113.

For G11U A71C, the self-cleavage is 0.405.

As to C36U C48A, the self-cleavage came to 0.623.

Turning to C13A G81C, the self-cleavage was found to be 0.

On to C49G C66U, for which the self-cleavage came out at 0.646.

Consider U12G U46A, for which the self-cleavage turned out to be 0.332.

With C4A C48U, the self-cleavage was 0.151.

Turning to G53A C66U, the self-cleavage is 1.05.

Regarding C22A U72A, the self-cleavage is 0.0665.

On to A45G G81C, for which the self-cleavage was determined as 0.147.

For the variant G31C A87U, the self-cleavage was found to be 0.328.

As to U46C U47G, the self-cleavage was determined as 0.703.

As for U72A A77G, the self-cleavage came to 0.57.

With G38A C61G, the self-cleavage was 0.138.

For C57A G73A, the self-cleavage came out at 0.708.

In the case of G35A C57A, the self-cleavage was found to be 0.545.

For the variant C13A A43U, the self-cleavage turned out to be 0.154.

Take C26G G67C: the self-cleavage was determined as 0.8.

Take C49U A87U: the self-cleavage was 0.939.

In the case of C19A A87G, the self-cleavage was determined as 0.11.

In the case of C30G G73C, the self-cleavage came out at 0.0489.

For C7U A87C, the self-cleavage stood at 0.968.

In the case of G34U G80A, the self-cleavage turned out to be 0.113.

In the case of A16U G25U, the self-cleavage was 0.166.

For the variant G59A G74A, the self-cleavage was 0.431.

On to G2C G29C, for which the self-cleavage is 0.109.

Regarding G11C G53U, the self-cleavage was determined as 0.415.

Take U23C G68C: the self-cleavage came to 0.727.

For C22A C36G, the self-cleavage is 0.0354.

On to G34C A70C, for which the self-cleavage came to 0.123.

G25U G28A: the self-cleavage was found to be 0.

As to G76A A77G, the self-cleavage came to 1.04.

In the case of G39U C61U, the self-cleavage stood at 0.58.

With G5U G17U, the self-cleavage was 0.18.

Take C24U C48A: the self-cleavage stood at 0.692.

As for U12A G17A, the self-cleavage stood at 0.19.

As to G81C G82C, the self-cleavage worked out at 0.106.

Regarding C18U A83G, the self-cleavage amounted to 0.356.

As for C3A C75G, the self-cleavage was found to be 0.0308.

For C22A C85U, the self-cleavage turned out to be 0.345.

Take G25A U60C: the self-cleavage was found to be 0.138.

On to C13U G55U, for which the self-cleavage is 0.598.

For C48G G50U, the self-cleavage stood at 0.941.

On to G6C A16G, for which the self-cleavage turned out to be 0.151.

Take G40C C57U: the self-cleavage was determined as 0.354.

Regarding G11A A70U, the self-cleavage came to 0.246.

Take C61G A71G: the self-cleavage came to 0.808.

G38U G59C: the self-cleavage is 0.264.

C63G U79C: the self-cleavage stood at 0.697.

Regarding G25A C58A, the self-cleavage worked out at 0.237.

Consider C36U G38A, for which the self-cleavage is 0.191.

Take G28C C41U: the self-cleavage came out at 0.0437.

On to G10A C49G, for which the self-cleavage amounted to 0.46.

Regarding G28U A56C, the self-cleavage stood at 0.

For the variant C7U U69A, the self-cleavage was determined as 0.718.

In the case of C26A G54U, the self-cleavage turned out to be 1.03.

Take G52U G54U: the self-cleavage came out at 0.784.

For the variant C66U G80U, the self-cleavage came out at 0.295.

With U12A C36U, the self-cleavage came to 0.0678.

On to U12C U60C, for which the self-cleavage was 0.594.

Take G1C G5U: the self-cleavage came out at 0.175.

A43U C62U: the self-cleavage is 0.394.

Consider U46C G59C, for which the self-cleavage stood at 0.965.

G5U G54A: the self-cleavage is 0.314.

Take U12C G76A: the self-cleavage is 0.344.

For the variant A42C G73C, the self-cleavage stood at 0.119.

On to G25A C48U, for which the self-cleavage turned out to be 0.264.

G34A A83C: the self-cleavage came to 0.203.

Take C44G A87U: the self-cleavage is 0.675.

For G10C G76U, the self-cleavage stood at 1.16.

Take G59U A71U: the self-cleavage turned out to be 0.862.

Consider C58A C64U, for which the self-cleavage came out at 1.15.

As for C15A C49A, the self-cleavage stood at 0.974.

As to A43U C64U, the self-cleavage was 0.588.

On to G28C C36A, for which the self-cleavage is 0.0462.

G35A C64G: the self-cleavage came to 0.31.

On to G31A A77G, for which the self-cleavage worked out at 0.339.

For the variant U9C C41G, the self-cleavage turned out to be 0.831.

As for A8U C13A, the self-cleavage was 0.

For G76C, the self-cleavage was determined as 1.

For the variant C63U G68A, the self-cleavage amounted to 0.973.

As for U37A A45C, the self-cleavage stood at 0.0707.

A51G G53A: the self-cleavage amounted to 0.831.

Consider C36U G80A, for which the self-cleavage was determined as 0.0923.

As to C30G U37G, the self-cleavage is 0.

In the case of U20A C85U, the self-cleavage turned out to be 0.0405.

For the variant G11U G40C, the self-cleavage was found to be 0.0181.

Take C32G C85U: the self-cleavage came out at 0.0692.

Regarding A16U C22U, the self-cleavage was 0.612.

Consider C19A G34A, for which the self-cleavage is 0.0755.

With G68C A71G, the self-cleavage came to 0.831.

As for U47G C86G, the self-cleavage was 0.95.

As to A43G C84A, the self-cleavage is 0.712.

With G17A A83C, the self-cleavage came to 0.665.

In the case of G17C A70U, the self-cleavage is 0.277.

As for U60G G68U, the self-cleavage is 0.762.

C3A G29A: the self-cleavage was determined as 0.012.

As to C33A C84G, the self-cleavage was found to be 0.219.

For the variant C22U G55U, the self-cleavage turned out to be 0.732.

Consider C24A A83U, for which the self-cleavage was found to be 0.415.

A42U C44U: the self-cleavage turned out to be 0.674.

For the variant C30A G34U, the self-cleavage worked out at 0.155.

For the variant C21G U65A, the self-cleavage amounted to 0.0536.

Take G52A G55U: the self-cleavage turned out to be 0.934.

G53U C86A: the self-cleavage came to 1.07.
